Variants at the floor of the assay were thinned out.
B1: TPR 5TU (parent)
chain: GGAUCUUCUCGAUCUAACAAAAAAGACAAAUCUGCCACAAAGCUUGAGAGCAUCUUCGGAUGCAGAGGCGGCAGCCUUCGGUGGCGCGAUAGCGCCAACGUUCUCAACUAUGACACGCAAAACGCGUGCUCCGUUGAAUGGAGUUUAUCAUG

Variants of: B1
Assay: polymerase ribozyme fitness, log enrichment relative to wild type (log ratio); higher = more active; in vitro selection for triplet polymerase activity
How it was run: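 A single round of triplicate in vitro selection, including frozen incubation at −7 °C, was applied to PCR-built, transcribed mutant libraries of each subunit of a heterodimeric triplet polymerase ribozyme. Illumina sequencing of input and output libraries retained genotypes with ≥10 input reads and ≥1 read per output. Fitness is the base-2 logarithm of genotype enrichment divided by wild-type enrichment, from inverse-variance-weighted replicate averages.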

Variant | polymerase ribozyme fitness (log ratio)
A39G G80U C95U C116G | -3.6
C38U U55G G83U U135C | -1.98
A39C U56A G59C | -2.08
A39C C87U U101G G117U | -3.2
A39G G59C G71A U101C A115G G140U | ≤ -4.2
C38U U45A G84U C129A A142C | ≤ -4.2
A39C A89C A119U A120G U130A | ≤ -4.2
A39G G70A U77G G141A A142C | ≤ -4.2
A39C G133C U146A | -3.57
A39G C87U A147C C149A | ≤ -4.2
A39C C57A G86A U130C | -2.93
A39C A52G G70A C99G G100A U144A | ≤ -4.2
C38U U148C | -1.36
C38U G84U | -2.42
C38U G88C G126C A147C | ≤ -4.2
A39G C54G C57A | -3.22
A39G G42A G48C A49C G83U C87G C96A A107U | ≤ -4.2
A39G G80C C93U C118U | -3.96
A39G G83A G141C | -3.09
A39C U53G C85U | -4.06
A39C C75U G83A | ≤ -4.2

Variant | polymerase ribozyme fitness (log ratio)
C38U G86A A137G A147U | -2.49
A39C A41C G86U U139G | ≤ -4.2
A39G G86C U109C G128U G140C | ≤ -4.2
A39C U45A G48U C57G G70A G83C C96U A115G G141A | ≤ -4.2
C38U G94U | -0.0168
A39C C118U A120U | -1.81
C38U U55G A119G | -0.675
A39C A40C G70C G88C U109C | ≤ -4.2
A39C C54G C93A | ≤ -4.2
A39G A60C | -3.03
A39G G141C | -2.65
C38U U53A C105U | 0.169
A39C U130G | ≤ -4.2
C38U G84U C87G U144C C149G | ≤ -4.2
A39G A60C G67U C99G G143C | ≤ -4.2
A39G G50C C51G G58A C93G U139G | ≤ -4.2
A39G C51U A52U G74A | ≤ -4.2
A39C A52G C123G | -2.84
C38U U44A G70C U134G | ≤ -4.2
A39G A73G U109A A119U | -3.91
A39G G42C A47C A91U C93U U101G A119U C125U G133U G136A | ≤ -4.2

Variant | polymerase ribozyme fitness (log ratio)
A39C A91U G92A U139G | ≤ -4.2
A39G C63G G70C C87U A91G C99A A120G | ≤ -4.2
A39C A41C A115G G124A | -3.47
A39C C51U C105U C118U | -3.78
A39G G42A C87G | ≤ -4.2
C38U U145A | 0.631
A39C G84A | -3.26
A39C G59C G86A | -3.73
A39G U55A C96A A97U | -3.27
A39C G59A C87A U139G | ≤ -4.2
C38U G86U | -1.57
C38U G86A | -1.16
C38U U61C U145A | -2.49
A39G G117C | -1.91
A39G G84A C116U | -1.91
A39G A89G G92A G141C | -3.85
A39C G62U G70A A115G | ≤ -4.2
A39G C75U C85U | -3.44
A39G C105G | -3.19
C38U U55A A60G C75G C76G A115U A122U C125G | ≤ -4.2
A39C G81A C99U C103G A107G C125U | ≤ -4.2

Variant | polymerase ribozyme fitness (log ratio)
A39C A47C G62A C85U A98U U134A | ≤ -4.2
C38U G83C | -0.262
A39G G94C | -2.32
C38U U55A C85U | -0.272
A39C C76U G83U U104C | ≤ -4.2
A39C U56G A73G | -3.36
A39G G59A C116U U144C | -4.19
A39G A97U | -2.96
A39C A40C A41C G42C G46U G59C C87A U90G U127G G152U | ≤ -4.2
A39C C85A C118A | -3.96
A39C A89U C116U | -2.02
A39C C79G G92A | -3.32
A39C A47U | -2.53
A39G U53A C87U A115C | -3.83
A39G G59A C96G U146C | -3.67
A39G A147U | -0.693
C38U U55G C85A | -2.3
A39G G58U G59C G124C G136A | ≤ -4.2
A39C G141U | -2.91
C38U G81C U111G A138G | ≤ -4.2

— the RNAGym collection of RNA variant scans (doi:10.1073/pnas.2313332121)
